According to patent US20160237160A1, “ANTI-TWEAKR ANTIBODIES AND USES THEREOF” (BAYER PHARMA AKTIENGESELLSCHAFT, priority 2013, published 2016):

Target: TPP-2305 (hTNFRSF12Aaa28-80) (Human) (UniProt Q9NP84)
Assay: SPR (Biacore T100), IgG captured, TPP-2305 injected, 1:1 model

- Kd: 2.9 nM
- koff: 0.011 s⁻¹
- kon: 3.8e+06 M⁻¹ s⁻¹
B1: ITEM-1 (antibody, from another filing, mouse IgG1, V domains shown)
VH: EVKLEESGGGLVQPGGSMKLSCVASGFSFSNYWMNWVRQSPEKGLEWVAEIRLKSNNYATHYAESVKGRFTISRHDSKSSVYLQMNNLRAEDTGIYYCTRAYADYFDYWGQGTTLTVSS
VL: DIVLTQSPASLVVSLGQRATISCRASQSVSTSTYSYMHWYQQKPGQPPKILIKYASNLESGVPARFSGSGSGTDFTLNIHPVEEEDTATYYCQHSWEIPYTFGGGTKLEIKR
